The values below come from the supplement of paper PMC5998384.

Data set [1] relates to HeLa Kyoto. Kind of data set: melting temperature (median over replicates), in situ; higher = more thermally stable.
Data set [2] deals with HeLa Kyoto. Kind of data set: thermal stability score vs G1/S (z-score of summed log2 fold changes over temperatures); higher = more thermally stable than in G1/S.
Data set [3] relates to HeLa Kyoto. Kind of data set: solubility change mitosis vs G1/S (difference of NP-40 vs SDS log2 ratios) (log2 ratio difference); higher = more soluble in mitosis.
Data set [4] has as its system HeLa Kyoto. Kind of data set: solubility in G1/S (NP-40 vs SDS abundance) (log2 ratio); higher = more soluble. As to conditions: cell cycle stage: G1/S.
[5] abbreviates: cell cycle stage: early G1 (4.5 h after nocodazole release).
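For melting temperature (median over replicates), in situ in this document: HeLa Kyoto cells synchronized by double thymidine or nocodazole block, proteins quantified by TMT10plex mass spectrometry, three independent biological replicates.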
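For solubility change mitosis vs G1/S (difference of NP-40 vs SDS log2 ratios) in this document: synchronized HeLa Kyoto cells (double thymidine block for G1/S, nocodazole release for mitosis), protein amounts in NP-40 versus SDS lysates quantified by mass spectrometry, three biological replicates.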
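For solubility in G1/S (NP-40 vs SDS abundance) in this document: HeLa Kyoto cells arrested at G1/S by double thymidine block, proteins quantified by TMT10plex mass spectrometry in mild NP-40 versus SDS extracts, three biological replicates.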
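For thermal stability score vs G1/S (z-score of summed log2 fold changes over temperatures) in this document: synchronized HeLa Kyoto cells, proteins quantified by TMT10plex mass spectrometry, three biological replicates, mitosis taken 0.5 h after nocodazole release, G1/S directly after double thymidine block.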

MAT2A, sequence (chain, as listed by the source): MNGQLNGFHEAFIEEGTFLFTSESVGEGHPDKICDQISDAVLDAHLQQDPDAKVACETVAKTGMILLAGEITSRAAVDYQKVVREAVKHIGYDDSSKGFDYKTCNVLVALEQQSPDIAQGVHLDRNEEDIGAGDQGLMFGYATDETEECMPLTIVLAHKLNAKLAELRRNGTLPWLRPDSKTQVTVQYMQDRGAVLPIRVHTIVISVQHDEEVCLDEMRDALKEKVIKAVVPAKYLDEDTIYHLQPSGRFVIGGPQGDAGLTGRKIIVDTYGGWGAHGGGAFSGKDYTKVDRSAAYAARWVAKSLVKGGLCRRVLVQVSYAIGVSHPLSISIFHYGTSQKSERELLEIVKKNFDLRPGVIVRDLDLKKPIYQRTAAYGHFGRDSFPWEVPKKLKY

Turning to MAT2A, the melting temperature in the data set with HeLa Kyoto [1] (cell cycle stage: G1/S) worked out at 57 °C; in the data set with HeLa Kyoto [1] (cell cycle stage: mitosis), 57.3 °C. Also, the thermal stability score with HeLa Kyoto [2] (setting [5]) is -0.032; in the data set on HeLa Kyoto [2] (cell cycle stage: mitosis), 0.349. Also, the “solubility change mitosis (log2)” value in the data set with HeLa Kyoto [3] is -0.123. Further, the “solubility in G1/S (log2)” value in the data set on HeLa Kyoto [4] is -0.00612.
Turning to “MATAAAAAAVMAPPGCPGSCPNFAVVCSFLERYGPLLDLPELPFPELERVLQAPPPDVGNGEVPKELVELHLKLMRKIGKSVTADRWEKYLIKICQEFNSTWAWEMEKKGYLEMSVECKLALLKYLCECQFDDNLKFKNIINEEDADTMRLQPIGRDKDGLMYWYQLDQDHNVRMYIEEQDDQDGSSWKCIVRNRNELAETLALLKAQIDPVLLKNSSQQDNSSRESPSLEDEETKKEEETPKQEEQKESEKMKSEEQPMDLENRSTANVLEETTVKKEKEDEKELVKLPVIVKLEKPLPENEEKKIIKEESDSFKENVKPIKVEVKECRADPKDTKSSMEKPVAQEPERIEFGGNIKSSHEITEKSTEETEKLKNDQQAKIPLKKREIKLSDDFDSPVKGPLCKSVTPTKEFLKDEIKQEEETCKRISTITALGHEGKQLVNGEVSDERVAPNFKTEPIETKFYETKEESYSPSKDRNIITEGNGTESLNSVITSMKTGELEKETAPLRKDADSSISVLEIHSQKAQIEEPDPPEMETSLDSSEMAKDLSSKTALSSTESCTMKGEEKSPKTKKDKRPPILECLEKLEKSKKTFLDKDAQRLSPIPEEVPKSTLESEKPGSPEAAETSPPSNIIDHCEKLASEKEVVECQSTSTVGGQSVKKVDLETLKEDSEFTKVEMDNLDNAQTSGIEEPSETKGSMQKSKFKYKLVPEEETTASENTEITSERQKEGIKLTIRISSRKKKPDSPPKVLEPENKQEKTEKEEEKTNVGRTLRRSPRISRPTAKVAEIRDQKADKKRGEGEDEVEEESTALQKTDKKEILKKSEKDTNSKVSKVKPKGKVRWTGSRTRGRWKYSSNDESEGSGSEKSSAASEEEEEKESEEAILADDDEPCKKCGLPNHPELILLCDSCDSGYHTACLRPPLMIIPDGEWFCPPCQHKLLCEKLEEQLQDLDVALKKKERAERRKERLVYVGISIENIIPPQEPDFSEDQEEKKKDSKKSKANLLERRSTRTRKCISYRFDEFDEAIDEAIEDDIKEADGGGVGRGKDISTITGHRGKDISTILDEERKENKRPQRAAAARRKKRRRLNDLDSDSNLDEEESEDEFKISDGSQDEFVVSDENPDESEEDPPSNDDSDTDFCSRRLRRHPSRPMRQSRRLRRKTPKKKYSDDDEEEESEENSRDSESDFSDDFSDDFVETRRRRSRRNQKRQINYKEDSESDGSQKSLRRGKEIRRVHKRRLSSSESEESYLSKNSEDDELAKESKRSVRKRGRSTDEYSEADEEEEEEEGKPSRKRLHRIETDEEESCDNAHGDANQPARDSQPRVLPSEQESTKKPYRIESDEEEDFENVGKVGSPLDYSLVDLPSTNGQSPGKAIENLIGKPTEKSQTPKDNSTASASLASNGTSGGQEAGAPEEEEDELLRVTDLVDYVCNSEQL [RSF1]”, the figures for the melting temperature in the data set on HeLa Kyoto [1] (cell cycle stage: G1/S) and with HeLa Kyoto [1] (cell cycle stage: mitosis) were 49.1 °C and 51.7 °C, respectively. Further, the thermal stability score in the data set on HeLa Kyoto [2] (setting [5]) came to 0.31; in the data set with HeLa Kyoto [2] (cell cycle stage: mitosis) it was 2.21. The “solubility change mitosis (log2)” value with HeLa Kyoto [3] was 0.0168. The “solubility in G1/S (log2)” value in the data set on HeLa Kyoto [4] was -1.03.
With “MATAAETSASEPEAESKAGPKADGEEDEVKAARTRRKVLSRAVAAATYKTMGPAWDQQEEGVSESDGDEYAMASSAESSPGEYEWEYDEEEEKNQLEIERLEEQLSINVYDYNCHVDLIRLLRLEGELTKVRMARQKMSEIFPLTEELWLEWLHDEISMAQDGLDREHVYDLFEKAVKDYICPNIWLEYGQYSVGGIGQKGGLEKVRSVFERALSSVGLHMTKGLALWEAYREFESAIVEAARLEKVHSLFRRQLAIPLYDMEATFAEYEEWSEDPIPESVIQNYNKALQQLEKYKPYEEALLQAEAPRLAEYQAYIDFEMKIGDPARIQLIFERALVENCLVPDLWIRYSQYLDRQLKVKDLVLSVHNRAIRNCPWTVALWSRYLLAMERHGVDHQVISVTFEKALNAGFIQATDYVEIWQAYLDYLRRRVDFKQDSSKELEELRAAFTRALEYLKQEVEERFNESGDPSCVIMQNWARIEARLCNNMQKARELWDSIMTRGNAKYANMWLEYYNLERAHGDTQHCRKALHRAVQCTSDYPEHVCEVLLTMERTEGSLEDWDIAVQKTETRLARVNEQRMKAAEKEAALVQQEEEKAEQRKRARAEKKALKKKKKIRGPEKRGADEDDEKEWGDDEEEQPSKRRRVENSIPAAGETQNVEVAAGPAGKCAAVDVEPPSKQKEKAASLKRDMPKVLHDSSKDSITVFVSNLPYSMQEPDTKLRPLFEACGEVVQIRPIFSNRGDFRGYCYVEFKEEKSALQALEMDRKSVEGRPMFVSPCVDKSKNPDFKVFRYSTSLEKHKLFISGLPFSCTKEELEEICKAHGTVKDLRLVTNRAGKPKGLAYVEYENESQASQAVMKMDGMTIKENIIKVAISNPPQRKVPEKPETRKAPGGPMLLPQTYGARGKGRTQLSLLPRALQRPSAAAPQAENGPAAAPAVAAPAATEAPKMSNADFAKLFLRK [SART3]”, the melting temperature was 48.2 °C in the data set with HeLa Kyoto [1] (cell cycle stage: G1/S) and 49.2 °C with HeLa Kyoto [1] (cell cycle stage: mitosis). Further, the thermal stability score in the data set on HeLa Kyoto [2] (setting [5]) is 1.98; with HeLa Kyoto [2] (cell cycle stage: mitosis) it was 4.74. Besides, the “solubility change mitosis (log2)” value in the data set on HeLa Kyoto [3] is -0.103. In the data set with HeLa Kyoto [4], the “solubility in G1/S (log2)” value was -0.112.
In the case of “MATAALLRGATPGRGGPVWRWRLRAAPRCRLAHSSCSPGGDPTAGAAWACFRLDGRTLLRVRGPDAAPFLLGLLTNELPLPSPAAAGAPPAARAGYAHFLNVQGRTLYDVILYGLQEHSEVSGFLLECDSSVQGALQKHLALYRIRRKVTVEPHPELRVWAVLPSSPEACGAASLQERAGAAAILIRDPRTARMGWRLLTQDEGPALVPGGRLGDLWDYHQHRYLQGVPEGVRDLPPGVALPLESNLAFMNGVSFTKGCYIGQELTARTHHMGVIRKRLFPVRFLDPLPTSGITPGATVLTASGQTVGKFRAGQGNVGLALLWSEKIKGPLHIRASEGAQVALAASVPDWWPTVSK [IBA57]”, the figures for the melting temperature in the data set on HeLa Kyoto [1] (cell cycle stage: G1/S) and with HeLa Kyoto [1] (cell cycle stage: mitosis) were 52.8 °C and 52.4 °C, respectively. Further, the figures for the thermal stability score in the data set on HeLa Kyoto [2] (setting [5]) and in the data set with HeLa Kyoto [2] (cell cycle stage: mitosis) were 0.0549 and -0.552, respectively. In addition, in the data set on HeLa Kyoto [3], the “solubility change mitosis (log2)” value worked out at 0.132. Besides, the “solubility in G1/S (log2)” value in the data set on HeLa Kyoto [4] was -0.246.
Regarding “MATALALRSLYRARPSLRCPPVELPWAPRRGHRLSPADDELYQRTRISLLQREAAQAMYIDSYNSRGFMINGNRVLGPCALLPHSVVQWNVGSHQDITEDSFSLFWLLEPRIEIVVVGTGDRTERLQSQVLQAMRQRGIAVEVQDTPNACATFNFLCHEGRVTGAALIPPPGGTSLTSLGQAAQ [NDUFAF3]”, the values for the melting temperature in the data set on HeLa Kyoto [1] (cell cycle stage: G1/S) and in the data set with HeLa Kyoto [1] (cell cycle stage: mitosis) were 53.4 °C and 53.5 °C, respectively. Besides, the thermal stability score in the data set with HeLa Kyoto [2] (setting [5]) is -0.2; in the data set on HeLa Kyoto [2] (cell cycle stage: mitosis), -2.08. The “solubility change mitosis (log2)” value in the data set with HeLa Kyoto [3] was -0.0203. The “solubility in G1/S (log2)” value in the data set on HeLa Kyoto [4] stood at 0.117.
Consider “MATALSEEELDNEDYYSLLNVRREASSEELKAAYRRLCMLYHPDKHRDPELKSQAERLFNLVHQAYEVLSDPQTRAIYDIYGKRGLEMEGWEVVERRRTPAEIREEFERLQREREERRLQQRTNPKGTISVGVDATDLFDRYDEEYEDVSGSSFPQIEINKMHISQSIEAPLTATDTAILSGSLSTQNGNGGGSINFALRRVTSAKGWGELEFGAGDLQGPLFGLKLFRNLTPRCFVTTNCALQFSSRGIRPGLTTVLARNLDKNTVGYLQWRWGIQSAMNTSIVRDTKTSHFTVALQLGIPHSFALISYQHKFQDDDQTRVKGSLKAGFFGTVVEYGAERKISRHSVLGAAVSVGVPQGVSLKVKLNRASQTYFFPIHLTDQLLPSAMFYATVGPLVVYFAMHRLIIKPYLRAQKEKELEKQRESAATDVLQKKQEAESAVRLMQESVRRIIEAEESRMGLIIVNAWYGKFVNDKSRKSEKVKVIDVTVPLQCLVKDSKLILTEASKAGLPGFYDPCVGEEKNLKVLYQFRGVLHQVMVLDSEALRIPKQSHRIDTDG [DNAJC11]”, for which the melting temperature with HeLa Kyoto [1] (cell cycle stage: G1/S) came to 52.6 °C; in the data set on HeLa Kyoto [1] (cell cycle stage: mitosis) it was 52.3 °C. In addition, the thermal stability score in the data set with HeLa Kyoto [2] (setting [5]) was 0.0819; in the data set with HeLa Kyoto [2] (cell cycle stage: mitosis) it was -0.993. Moreover, in the data set with HeLa Kyoto [3], the “solubility change mitosis (log2)” value is -0.0355. Besides, the “solubility in G1/S (log2)” value with HeLa Kyoto [4] is -0.172.
